Publication PMC12921616, “Flower-like Silver Bismuth Sulfide/Carbon Nanosphere Nanocomposite for Sensitive Electrochemical Tumor Marker Sensing”

Biological target: Carcinoembryonic antigen (CEA) (UniProt P06731 35-685)
Assay: electrochemical aptasensor (CV, DPV); immobilized aptamer; current falls with CEA; LOD 7.6 ng/mL (not a Kd); 0.05 M PBS pH 7.0, 0.1 M KCl, 5 mM [Fe(CN)6]3-/4-; temperature not stated

Sequence of Carcinoembryonic antigen (CEA) (P06731 35-685): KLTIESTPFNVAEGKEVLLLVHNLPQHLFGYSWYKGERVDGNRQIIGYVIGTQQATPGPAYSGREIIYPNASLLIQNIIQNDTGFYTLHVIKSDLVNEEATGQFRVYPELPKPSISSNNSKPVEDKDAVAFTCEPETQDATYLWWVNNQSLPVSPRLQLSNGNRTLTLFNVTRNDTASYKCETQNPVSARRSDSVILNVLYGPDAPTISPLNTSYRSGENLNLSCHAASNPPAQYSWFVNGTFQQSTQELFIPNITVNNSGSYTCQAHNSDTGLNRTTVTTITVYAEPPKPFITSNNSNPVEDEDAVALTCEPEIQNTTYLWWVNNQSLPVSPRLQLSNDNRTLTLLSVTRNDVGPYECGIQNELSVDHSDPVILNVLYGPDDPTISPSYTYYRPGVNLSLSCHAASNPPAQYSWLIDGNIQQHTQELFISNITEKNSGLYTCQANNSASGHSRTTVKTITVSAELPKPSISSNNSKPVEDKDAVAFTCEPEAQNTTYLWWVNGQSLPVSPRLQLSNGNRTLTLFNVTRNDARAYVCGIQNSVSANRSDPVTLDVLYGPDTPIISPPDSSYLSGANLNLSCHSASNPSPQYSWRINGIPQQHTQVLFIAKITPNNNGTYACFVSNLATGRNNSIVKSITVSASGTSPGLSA

B1: CEA aptamer (ssDNA)
DNA: GTGACGCTCCTAACGCTGACTCAGGTGCAGTTCTCGACTCGGTCTTGATGTGGGTCCTGTCCGTCCGAACCAATC
modifications: 5'-NH2
Question: Does B1 bind?
Answer: binds
